Laboratory results reported in patent US20240132578A1.

Tests used:
Assay in all cases: cell-based or functional assay
[1] = biological target: HIV-1 92UG024 envelope (Env) on pseudovirus (HIV-1)
[2] = biological target: HIV-1 94UG103 envelope (Env) on pseudovirus (HIV-1)
[3] = biological target: HIV-1 APV-17 envelope (Env) on pseudovirus (HIV-1)
[4] = biological target: HIV-1 Env of isolate 92BR020, clade B (HIV-1)
[5] = biological target: HIV-1 Env of isolate 92RW008 (clade A pseudovirus) (HIV-1)
[6] = biological target: HIV-1 Env of isolate 92TH021 (CRF01_AE) (HIV-1)
[7] = biological target: HIV-1 Env of isolate 94UG103 (Clade A) (HIV-1)
[8] = biological target: HIV-1 Env of isolate MGRM-A-009 (clade A pseudovirus) (HIV-1)
[9] = biological target: HIV-1 Env of isolate MGRM-Chronic-B-002, clade B (HIV-1)
[10] = biological target: HIV-1 MGRM-AE-008 Env (pseudovirus) (HIV-1)
[11] = biological target: HIV-1 MGRM-AG-012 Env (pseudovirus) (HIV-1)
[12] = biological target: HIV-1 MGRM-G-006 Env (pseudovirus) (HIV-1)
[13] = biological target: HIV-1 envelope glycoprotein (Env) of isolate MGRM-C-008 (HIV-1)
[14] = biological target: HIV-1 envelope glycoprotein (Env) of isolate MGRM-C-023 (HIV-1)
[15] = biological target: HIV-1 Env of isolate MGRM-A-011 (subtype A) (HIV-1)
[16] = biological target: HIV-1 Env of isolate MGRM-AG-001 (subtype AG) (HIV-1)
[17] = biological target: HIV-1 Env of isolate MGRM-AG-005 (subtype AG) (HIV-1)
[18] = biological target: HIV-1 Env of isolate MGRM-C-002 (HIV-1)
[19] = biological target: HIV-1 Env of isolate MGRM-D-004 (pseudovirus) (HIV-1)
[20] = biological target: HIV-1 Env of isolate MGRM-D-019 (pseudovirus) (HIV-1)
[21] = biological target: HIV-1 Env of isolate MGRM-D-020 (pseudovirus) (HIV-1)
[22] = biological target: HIV-1 Env of isolate MGRM-F1-008 (HIV-1)
[23] = biological target: HIV-1 Env of isolate MGRM-F1-016 (HIV-1)
[24] = biological target: HIV-1 Env of isolate MGRM-F1-021 (HIV-1)
[25] = biological target: HIV-1 JR-CSF Env E466A (HIV-1 (isolate JR-CSF)) (UniProt P20871)
[26] = biological target: HIV-1 JR-CSF Env I307A (HIV-1 (isolate JR-CSF, clade B)) (UniProt P20871)
[27] = biological target: HIV-1 JR-CSF Env I423A (I4234 in the source) (HIV-1 (isolate JR-CSF)) (UniProt P20871)
[28] = biological target: HIV-1 JR-CSF Env T303A (HIV-1 (isolate JR-CSF, clade B)) (UniProt P20871)
[29] = biological target: HIV-1 Env of isolate MGRM-F1-015 (pseudovirus) (HIV-1)
[30] = biological target: HIV-1 MGRM-D-018 Env (HIV-1)
[31] = biological target: HIV-1 envelope glycoprotein (Env) of isolate MG RM-A-008, subtype A (HIV-1)
[32] = biological target: HIV-1 envelope glycoprotein (Env) of isolate MG RM-A-013, subtype A (HIV-1)
[33] = biological target: HIV-1 envelope glycoprotein (Env) of isolate MGRM-Chronic-B-002, on pseudovirus (HIV-1)
[34] = biological target: HIV-1 envelope glycoprotein (Env) of isolate MGRM-Chronic-B-017, on pseudovirus (HIV-1)
[35] = biological target: HIV-1 envelope glycoprotein (Env) of isolate MGRM-Chronic-B-020, on pseudovirus (HIV-1)
[36] = biological target: HIV-1 envelope glycoprotein (Env) of isolate VLGCA1, subtype A (HIV-1)
[37] = biological target: HIV-1 envelope glycoprotein (Env) of isolate VLGCB3, on pseudovirus (HIV-1)

2F5 (antibody)
neutralization IC50 [1]: 1.27 µg/mL
neutralization IC50 [2]: 3.79 µg/mL
neutralization IC50 [3]: 2 µg/mL
IC50 (µg/ml), pseudovirus neutralization [4]: > 50 µg/mL
IC50 (µg/ml), pseudovirus neutralization [5]: 10.4 µg/mL
IC90 (neutralization of pseudovirus) [6]: 18.8 µg/mL
IC90 (neutralization of pseudovirus) [7]: 46.6 µg/mL
IC50 (µg/ml), pseudovirus neutralization [8]: 9.4 µg/mL
IC50 (µg/ml), pseudovirus neutralization [9]: 1.25 µg/mL
IC50 (µg/ml), pseudovirus neutralization [10]: > 50 µg/mL
IC50 (µg/ml), pseudovirus neutralization [11]: 0.33 µg/mL
IC50 (µg/ml), pseudovirus neutralization [12]: 1.33 µg/mL
IC50 (µg/ml), pseudovirus neutralization [13]: > 50 µg/mL
IC50 (µg/ml), pseudovirus neutralization [14]: > 50 µg/mL

2G12 (antibody)
neutralization IC50 [1]: 0.59 µg/mL
neutralization IC50 [2]: > 50 µg/mL
neutralization IC50 [3]: > 50 µg/mL
IC50 (µg/ml), pseudovirus neutralization [4]: 4.84 µg/mL
IC50 (µg/ml), pseudovirus neutralization [5]: 22.5 µg/mL
IC90 (neutralization of pseudovirus) [6]: > 50 µg/mL
IC90 (neutralization of pseudovirus) [7]: > 50 µg/mL
IC50 (µg/ml), pseudovirus neutralization [8]: 7.47 µg/mL
IC50 (µg/ml), pseudovirus neutralization [9]: > 50 µg/mL
IC50 (µg/ml), pseudovirus neutralization [10]: > 50 µg/mL
IC50 (µg/ml), pseudovirus neutralization [11]: 1.94 µg/mL
IC50 (µg/ml), pseudovirus neutralization [12]: > 50 µg/mL
IC50 (µg/ml), pseudovirus neutralization [13]: > 50 µg/mL
IC50 (µg/ml), pseudovirus neutralization [14]: > 50 µg/mL

4E10 (antibody)
neutralization IC50 [1]: 1.32 µg/mL
neutralization IC50 [2]: 9.7 µg/mL
neutralization IC50 [3]: 5.1 µg/mL
IC50 (µg/ml), pseudovirus neutralization [4]: > 50 µg/mL
IC50 (µg/ml), pseudovirus neutralization [5]: 14.5 µg/mL
IC90 (neutralization of pseudovirus) [6]: 23.5 µg/mL
IC90 (neutralization of pseudovirus) [7]: > 50 µg/mL
IC50 (µg/ml), pseudovirus neutralization [8]: 12 µg/mL
IC50 (µg/ml), pseudovirus neutralization [9]: 2.19 µg/mL
IC50 (µg/ml), pseudovirus neutralization [10]: 0.94 µg/mL
IC50 (µg/ml), pseudovirus neutralization [11]: 0.86 µg/mL
IC50 (µg/ml), pseudovirus neutralization [12]: 1.23 µg/mL
IC50 (µg/ml), pseudovirus neutralization [13]: 2.97 µg/mL
IC50 (µg/ml), pseudovirus neutralization [14]: 1.95 µg/mL

1443_C16 (PG16) (TCN-116) (antibody)
neutralization IC50 [1]: > 50 µg/mL
neutralization IC50 [2]: 0.008 µg/mL
neutralization IC50 [3]: > 50 µg/mL
IC50 (µg/ml), pseudovirus neutralization [4]: > 50 µg/mL
IC50 (µg/ml), pseudovirus neutralization [5]: 0.002 µg/mL
IC90 (neutralization of pseudovirus) [6]: 23.4 µg/mL
IC90 (neutralization of pseudovirus) [7]: 1.59 µg/mL
IC50 (µg/ml), pseudovirus neutralization [8]: 0.01 µg/mL
IC50 (µg/ml), pseudovirus neutralization [9]: 3.06 µg/mL
IC50 (µg/ml), pseudovirus neutralization [10]: 3.25 µg/mL
IC50 (µg/ml), pseudovirus neutralization [11]: 25.1 µg/mL
IC50 (µg/ml), pseudovirus neutralization [12]: 2.42 µg/mL
IC50 (µg/ml), pseudovirus neutralization [13]: > 50 µg/mL
IC50 (µg/ml), pseudovirus neutralization [14]: 0.09 µg/mL

1495_C14 (PGC14) (antibody)
neutralization IC50 [1]: > 50 µg/mL
neutralization IC50 [2]: > 50 µg/mL
neutralization IC50 [3]: > 50 µg/mL
IC50 (µg/ml), pseudovirus neutralization [4]: 4 µg/mL
IC50 (µg/ml), pseudovirus neutralization [5]: 37 µg/mL
IC50 (µg/ml), pseudovirus neutralization [8]: > 50 µg/mL
IC50 (µg/ml), pseudovirus neutralization [9]: > 50 µg/mL
IC50 (µg/ml), pseudovirus neutralization [10]: > 50 µg/mL
IC50 (µg/ml), pseudovirus neutralization [11]: > 50 µg/mL
IC50 (µg/ml), pseudovirus neutralization [12]: > 50 µg/mL
IC50 (µg/ml), pseudovirus neutralization [13]: > 50 µg/mL
IC50 (µg/ml), pseudovirus neutralization [14]: > 50 µg/mL

5114_A19 (PGT-128) (antibody)
IC50, pseudovirus neutralization [15]: > 50 µg/mL
IC50, pseudovirus neutralization [16]: 4.73 µg/mL
IC50, pseudovirus neutralization [17]: 0.037 µg/mL
IC50 (µg/mL), pseudovirus neutralization [18]: 0.019 µg/mL
IC50 (µg/mL), pseudovirus neutralization [19]: 24.9 µg/mL
IC50 (µg/mL), pseudovirus neutralization [20]: > 50 µg/mL
IC50 (µg/mL), pseudovirus neutralization [21]: 0.011 µg/mL
IC50 (µg/mL), pseudovirus neutralization [22]: > 50 µg/mL
IC50 (µg/mL), pseudovirus neutralization [23]: 1.21 µg/mL
IC50 (µg/mL), pseudovirus neutralization [24]: > 50 µg/mL
Fold IC50 increase relative to wild-type (pseudovirus neutralization) [25]: 0.6 fold
Fold IC50 increase relative to wild-type [26]: 3.7 fold
Fold IC50 increase relative to wild-type (pseudovirus neutralization) [27]: 2.6 fold
Fold IC50 increase relative to wild-type [28]: > 500 fold

5123_A06 (PGT-125) (antibody)
IC50 (µg/mL), pseudovirus neutralization [29]: > 50 µg/mL
Fold IC50 increase relative to wild-type (pseudovirus neutralization) [25]: 1.6 fold
Fold IC50 increase relative to wild-type [26]: 5 fold
Fold IC50 increase relative to wild-type (pseudovirus neutralization) [27]: 5 fold
Fold IC50 increase relative to wild-type [28]: > 250 fold
IC50, pseudovirus neutralization [30]: 0.0382 µg/mL
IC50, pseudovirus neutralization [31]: > 50 µg/mL
IC50, pseudovirus neutralization [32]: 0.014 µg/mL
IC50, pseudovirus neutralization [33]: 0.064 µg/mL
IC50, pseudovirus neutralization [34]: > 50 µg/mL
IC50, pseudovirus neutralization [35]: 0.087 µg/mL
IC50, pseudovirus neutralization [36]: 0.078 µg/mL
IC50, pseudovirus neutralization [37]: 0.015 µg/mL

5136_H01 (PGT-131) (antibody)
IC50, pseudovirus neutralization [15]: > 50 µg/mL
IC50, pseudovirus neutralization [16]: > 50 µg/mL
IC50, pseudovirus neutralization [17]: 1.04 µg/mL
IC50 (µg/mL), pseudovirus neutralization [18]: > 50 µg/mL
IC50 (µg/mL), pseudovirus neutralization [19]: 2.01 µg/mL
IC50 (µg/mL), pseudovirus neutralization [20]: > 50 µg/mL
IC50 (µg/mL), pseudovirus neutralization [21]: > 50 µg/mL
IC50 (µg/mL), pseudovirus neutralization [22]: 2.74 µg/mL
IC50 (µg/mL), pseudovirus neutralization [23]: > 50 µg/mL
IC50 (µg/mL), pseudovirus neutralization [24]: > 50 µg/mL
Fold IC50 increase relative to wild-type (pseudovirus neutralization) [25]: 1.7 fold
Fold IC50 increase relative to wild-type [26]: > 170 fold
Fold IC50 increase relative to wild-type (pseudovirus neutralization) [27]: > 80 fold
Fold IC50 increase relative to wild-type [28]: > 170 fold

5147_N06 (PGT-130) (antibody)
IC50, pseudovirus neutralization [15]: > 50 µg/mL
IC50, pseudovirus neutralization [16]: > 50 µg/mL
IC50, pseudovirus neutralization [17]: 0.54 µg/mL
IC50 (µg/mL), pseudovirus neutralization [18]: > 50 µg/mL
IC50 (µg/mL), pseudovirus neutralization [19]: 1.21 µg/mL
IC50 (µg/mL), pseudovirus neutralization [20]: > 50 µg/mL
IC50 (µg/mL), pseudovirus neutralization [21]: 24.7 µg/mL
IC50 (µg/mL), pseudovirus neutralization [22]: 0.065 µg/mL
IC50 (µg/mL), pseudovirus neutralization [23]: > 50 µg/mL
IC50 (µg/mL), pseudovirus neutralization [24]: > 50 µg/mL
Fold IC50 increase relative to wild-type (pseudovirus neutralization) [25]: 1.7 fold
Fold IC50 increase relative to wild-type [26]: 1000 fold
Fold IC50 increase relative to wild-type (pseudovirus neutralization) [27]: > 1000 fold
Fold IC50 increase relative to wild-type [28]: > 250 fold
IC50, pseudovirus neutralization [30]: 0.0378 µg/mL

b12 (antibody)
neutralization IC50 [1]: 49.1 µg/mL
neutralization IC50 [2]: 3.54 µg/mL
neutralization IC50 [3]: > 25 µg/mL
IC50 (µg/ml), pseudovirus neutralization [4]: > 50 µg/mL
IC50 (µg/ml), pseudovirus neutralization [5]: 9.46 µg/mL
IC90 (neutralization of pseudovirus) [6]: > 50 µg/mL
IC90 (neutralization of pseudovirus) [7]: 47.3 µg/mL
IC50 (µg/ml), pseudovirus neutralization [8]: 4.34 µg/mL
IC50 (µg/ml), pseudovirus neutralization [9]: 0.86 µg/mL
IC50 (µg/ml), pseudovirus neutralization [10]: > 50 µg/mL
IC50 (µg/ml), pseudovirus neutralization [11]: 10.4 µg/mL
IC50 (µg/ml), pseudovirus neutralization [12]: > 50 µg/mL
IC50 (µg/ml), pseudovirus neutralization [13]: 1.51 µg/mL
IC50 (µg/ml), pseudovirus neutralization [14]: 13.9 µg/mL
